This is an account of results in US6617114B1, “Identification of drug complementary combinatorial libraries” (priority 1996, dated 2003).

For experiment [1], the target named is T1, GST-UL44 (Human cytomegalovirus, UniProt P16790).
T1 construct: made in house; host or cells: E. coli DH5aF′
Put plainly: Enzyme Linked Spectrophotometric Assay (ELSA) for CMV UL44. It is filed as binding. How it is done:
IMMULON-4 (cat.#011-010-3855) 96-well microtitration test plates were purchased from Dynatech. Bovine serum, albumin (BSA) (A2153), Streptavidin alkaline phosphatase (SA-AP) (S2890), TWEEN-20 detergent (P1379), and p-nitrophenyl phosphate tablets (pNPP) (N-1891, N-2770) were purchased from Sigma. Phosphate buffered saline (PBS) (21600-010) was obtained from Gibco-BRL. Ultrapure glycerol (#16374) was purchased from USB. Biotinylated surrogate ligands were prepared as a 1 mM stock solution in the appropriate solvent (H2O or 10% acetonitrile). SA-AP was prepared as a 1 mg/ml stock solution in PBS containing 10% glycerol and stored in aliquots at −80° C.
Target protein was immobilized in microtiter wells by incubating 0.5-2.0 μg per well in 100 μl of 0.1 M NaHCO3 overnight at 4° C. […] During the 1 hour blocking period, the SA-AP:surrogate ligand conjugate was prepared by mixing 2 μg SA-AP and 50 pmol biotinylated surrogate ligand for each well of target protein. (This corresponds to a 1:1 ratio of biotinylated peptide to biotin binding sites.) The mixture was incubated at room temperature for 15-20 minutes and then diluted with Tris-buffered saline-TWEEN-20 detergent (TBST) 10 mM Tris-HCl, pH 8.0, 150 mM NaCl, 0.05% TWEEN-20 detergent such that there was 100 μl of conjugate per well. […]
After blocking, the wells were washed once with 200 μl TBST. […] The absorbance was read at 405 nm.

Experiment [2] addresses T2, Yeast alcohol dehydrogenase (yeast), P00330.
T2 chain: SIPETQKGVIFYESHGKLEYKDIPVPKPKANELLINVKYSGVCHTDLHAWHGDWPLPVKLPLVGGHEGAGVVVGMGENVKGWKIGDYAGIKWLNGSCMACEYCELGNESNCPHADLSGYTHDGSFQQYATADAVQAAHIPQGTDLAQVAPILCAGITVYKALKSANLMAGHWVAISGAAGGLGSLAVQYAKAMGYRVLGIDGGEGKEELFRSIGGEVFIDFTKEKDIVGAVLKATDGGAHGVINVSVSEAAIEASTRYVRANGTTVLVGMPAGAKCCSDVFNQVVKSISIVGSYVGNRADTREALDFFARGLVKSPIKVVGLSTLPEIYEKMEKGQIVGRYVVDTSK
Put plainly: cross reactivity phage ELISA. On the technique in general: ELISA stands for enzyme-linked immunosorbent assay.

Experiment [3] has as its target T3, carboxypeptidase B from pig pancreas (pig), P09955.
T3 chain: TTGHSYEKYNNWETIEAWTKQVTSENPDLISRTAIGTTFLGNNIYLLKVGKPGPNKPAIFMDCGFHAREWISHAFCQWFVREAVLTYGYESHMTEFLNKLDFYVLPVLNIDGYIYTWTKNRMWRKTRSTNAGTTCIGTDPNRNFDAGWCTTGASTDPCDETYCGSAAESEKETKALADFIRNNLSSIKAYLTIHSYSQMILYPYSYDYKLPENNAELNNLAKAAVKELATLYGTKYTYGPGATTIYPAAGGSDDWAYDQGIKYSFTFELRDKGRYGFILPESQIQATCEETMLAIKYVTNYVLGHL
Put plainly: cross reactivity phage ELISA.

Where only a bound is given, the exact number is not on record here.

T1 sequence (P16790 whole entry): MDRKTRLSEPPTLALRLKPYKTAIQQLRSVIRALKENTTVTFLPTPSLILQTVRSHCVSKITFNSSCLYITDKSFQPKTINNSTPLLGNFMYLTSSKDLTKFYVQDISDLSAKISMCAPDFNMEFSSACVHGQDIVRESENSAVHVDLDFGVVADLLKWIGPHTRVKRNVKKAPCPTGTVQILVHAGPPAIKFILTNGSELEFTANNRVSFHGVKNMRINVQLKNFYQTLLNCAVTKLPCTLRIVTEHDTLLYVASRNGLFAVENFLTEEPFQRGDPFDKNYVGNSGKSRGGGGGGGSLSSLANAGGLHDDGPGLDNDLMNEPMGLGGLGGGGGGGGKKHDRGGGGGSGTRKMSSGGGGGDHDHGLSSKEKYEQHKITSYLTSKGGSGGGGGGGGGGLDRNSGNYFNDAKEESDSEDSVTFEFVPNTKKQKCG

“Biotin-H-Ser-Gly-Ser-Gly-Glu-His-Val-Cys-Ser-Trp-Gly-Trp-Gly-Arg-Cys-OH [UL44 BioKey]”: the “specificity of binding of biotinylated peptide” value in experiment [1] (tested on streptavidin, GST-UL44, GST, GST-SrcSH3) is on record as “binds specifically to UL44”.
“H-Ser-Gly-Ser-Gly-Glu-His-Val-Cys-Ser-Trp-Gly-Trp-Gly-Arg-Cys-OH (H-SGSGEHVCSWGWGRC-OH; cysteine pairing not given here) [non-biotinylated UL44 peptide]”: the “competition of biotinylated UL44 peptide binding” value in experiment [1] (self-competition) is on record as “competed specifically”.
As to SSWQGNVLLGNWISR (modifications not checked), in experiment [2], the fold ELISA signal on the specific target vs any other target tested is above 10 fold.
On to SSWGDYFNWRDGLSR (modifications not checked), for which the fold ELISA signal on the specific target vs any other target tested in experiment [3] is above 10 fold.
Turning to SRLLEVSPGWWQMSR (modifications not checked), the fold ELISA signal on the specific target vs any other target tested in experiment [3] is above 10 fold.
Take SSNYWWQSPVLSRHSR (modifications not checked): the fold ELISA signal on the specific target vs any other target tested in experiment [2] is above 10 fold.
For the molecule SSSFKPWPIYLGSSR (modifications not checked), the fold ELISA signal on the specific target vs any other target tested in experiment [2] was above 10 fold.
Consider SSFRELKPGWWSYSR (modifications not checked), for which the fold ELISA signal on the specific target vs any other target tested in experiment [3] was above 10 fold.
In experiment [2], SVSVGMKPSPRP (modifications not checked) yielded a fold ELISA signal on the specific target vs any other target tested above 10 fold.
Take SSLLNESRLQWSTSR (modifications not checked): the fold ELISA signal on the specific target vs any other target tested in experiment [2] is above 10 fold.
SRQVEVFKPWPVYSR (modifications not checked): the fold ELISA signal on the specific target vs any other target tested in experiment [2] is above 10 fold.
